Experimental data as given in the supplement of paper PMC10126150.
± gives the standard deviation of the averaged measurements.

What follows are sequences tested on ATP (assay: switch fluorescence ratio, 500 uM ATP over buffer (Cy3 cluster intensity, sum of 5 cycles each) (fold (ratio)); higher = stronger signal-on switching upon ATP binding; sequences stand for … in TCGTCGGCAGCGTCAGATGTGTATAAGAGACAGTTTTTTTTTTTTTTTTTTTTTTTTT…TC). Conditions: aptamer strand: ATP DNA aptamer (quencher-CACCTGGGGGAGTATTGCGGAGGAAGG + anchor), 100 nM annealed; ATP concentration: 500 uM.
Method in brief: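 Imaging in selection buffer was followed by imaging after 15 min with 500 uM ATP at 22 °C, for Cy3-labelled switching-strand clusters annealed to 100 nM quencher-labelled ATP aptamer on a modified Illumina MiSeq flow-cell. Five of these buffer/ATP cycles ran, separated by NaOH stripping and re-annealing. The fluorescence ratio per cluster is summed target-cycle over summed buffer-cycle Cy3 intensity, averaged per switch-domain sequence; clusters outside 100-1000 RFU were removed.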
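Further: ATP exposure 15 min at 22 °C before imaging.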

First: TGATATCAAG
Second: GGGGATACGC
The switch fluorescence ratio of the first is lower: 0.979 ± 0.013 for the first, 1.03 ± 0.012 for the second.

AATTCCATTT and TATATTTAGT are within error of each other in switch fluorescence ratio: 1.01 ± 0.023 for the first, 0.973 ± 0.028 for the second.

TTTGTTTATC and CCAACCATTG are within error of each other in switch fluorescence ratio: 1.02 ± 0.057 for the first, 1.03 ± 0.011 for the second.

AAAACGTGGG and GGGTGACGGT are within error of each other in switch fluorescence ratio: 1.02 ± 0.022 for the first, 1.01 ± 0.04 for the second.

TATTTATTTG and AGGGGGACAC are within error of each other in switch fluorescence ratio: 1.02 ± 0.045 for the first, 1 ± 0.028 for the second.

TGTTAATAAC and ACCGTGTGTG are within error of each other in switch fluorescence ratio: 1 ± 0.052 for the first, 0.995 ± 0.046 for the second.

CATCGAGAGG and AGGAAGCAGT are within error of each other in switch fluorescence ratio: 1.01 ± 0.019 for the first, 1.018 ± 0.0085 for the second.

TGAAGGAGGG and ACGGTTGTTC are within error of each other in switch fluorescence ratio: 1.02 ± 0.06 for the first, 1.027 ± 0.005 for the second.

CATAGTTCTG and AACTAATTCA are within error of each other in switch fluorescence ratio: 0.981 ± 0.028 for the first, 0.99298 ± 0.00078 for the second.

GGATACGTTG and TTTTGTTTTC are within error of each other in switch fluorescence ratio: 1.02 ± 0.052 for the first, 1.11 ± 0.23 for the second.

Compared with GTCGAAGGTG, TTGCGAGGTG is lower in switch fluorescence ratio: 1.11 ± 0.03 for the first, 1.039 ± 0.0055 for the second.

Compared with TATGGATGGG, GCATGGTGGC is higher in switch fluorescence ratio: 0.961 ± 0.02 for the first, 1.013 ± 0.0028 for the second.

TGTCCGTTTG and GTGGTGGGGG are within error of each other in switch fluorescence ratio: 1.01 ± 0.023 for the first, 0.992 ± 0.034 for the second.

TGGGACGCCG and ATTGTCTCTA are within error of each other in switch fluorescence ratio: 1.01 ± 0.015 for the first, 0.999 ± 0.032 for the second.

Compared with CTTTTCTGTT, TCATTTCAGG is higher in switch fluorescence ratio: 0.9861 ± 0.0085 for the first, 1.01 ± 0.012 for the second.

TTCGATACTT and GGGGCAGGTG are within error of each other in switch fluorescence ratio: 0.9922 ± 0.0059 for the first, 1.27 ± 0.39 for the second.

TGTAAGGTCG and GTAGGACGTC are within error of each other in switch fluorescence ratio: 1.013 ± 0.01 for the first, 1.02 ± 0.011 for the second.

GTTATGGCTG and CATGCATATT are within error of each other in switch fluorescence ratio: 1.05 ± 0.021 for the first, 1.01 ± 0.044 for the second.

TGCAAGCGGG and GCGGGAGATA are within error of each other in switch fluorescence ratio: 0.985 ± 0.027 for the first, 1.01 ± 0.037 for the second.

GCTTGCAGTG and ACTTGGGGGT are within error of each other in switch fluorescence ratio: 0.995 ± 0.033 for the first, 1.02 ± 0.016 for the second.

ACGGGGTGCA and GCGGGGGGGC are within error of each other in switch fluorescence ratio: 0.99 ± 0.017 for the first, 1.01 ± 0.017 for the second.

Compared with TTGGTTTGGC, ATAACCGTAC is higher in switch fluorescence ratio: 1.01 ± 0.019 for the first, 2.46 ± 0.27 for the second.

TTGGTGTTGG and AAAGGGTCGA are within error of each other in switch fluorescence ratio: 1.01 ± 0.044 for the first, 1.02 ± 0.03 for the second.

CTATGGGTCC and GTTATTCCGG are within error of each other in switch fluorescence ratio: 1.02 ± 0.026 for the first, 1.038 ± 0.0043 for the second.

Compared with ATTCTCACGT, ACGCTTAGAC is higher in switch fluorescence ratio: 1.06 ± 0.021 for the first, 1.66 ± 0.24 for the second.

First: TATTGCCAGG
Second: GCATGTGGGT
The switch fluorescence ratio of the first is higher: 1.1 ± 0.036 for the first, 0.986 ± 0.017 for the second.

TTGCAATTTA and TTCACTCTTT are within error of each other in switch fluorescence ratio: 1.06 ± 0.033 for the first, 1.017 ± 0.0099 for the second.

TTTTGAGGAC and ACTAAGTAAC are within error of each other in switch fluorescence ratio: 1.034 ± 0.0035 for the first, 1.04 ± 0.037 for the second.

Compared with GAGGCAAGTG, GTGACTTCAA is lower in switch fluorescence ratio: 1.12 ± 0.055 for the first, 1.027 ± 0.0059 for the second.

CTTGACAATT and AGTGGAGGAC are within error of each other in switch fluorescence ratio: 1 ± 0.023 for the first, 1.02 ± 0.012 for the second.

GTGAAATTTT and TGGTGGGGGG are within error of each other in switch fluorescence ratio: 1.01 ± 0.039 for the first, 0.997 ± 0.037 for the second.

TTCGTAGTTG and TTTAGGCCCA are within error of each other in switch fluorescence ratio: 0.992 ± 0.054 for the first, 1.03 ± 0.041 for the second.

AAGGAATCGC and ATAAGGTCAA are within error of each other in switch fluorescence ratio: 1 ± 0.027 for the first, 0.995 ± 0.047 for the second.

AGGTCTTATT and GTGGTTTTGG are within error of each other in switch fluorescence ratio: 1.08 ± 0.094 for the first, 1 ± 0.035 for the second.

First: TAGAGGTCTT
Second: TGAGTGACG
The switch fluorescence ratio of the first is lower: 0.98 ± 0.016 for the first, 1.0136 ± 0.00054 for the second.

TTTCGGGCAG and GGGACTGGTA are within error of each other in switch fluorescence ratio: 1.02 ± 0.037 for the first, 1 ± 0.049 for the second.

GTGATAGTAA and TTAACTCGGA are within error of each other in switch fluorescence ratio: 1.006 ± 0.0099 for the first, 0.996 ± 0.056 for the second.

TCAGATGGTG and GTGGGGTCAA are within error of each other in switch fluorescence ratio: 1.02 ± 0.014 for the first, 0.9985 ± 0.0085 for the second.

Compared with ACTTGGAGGG, GGTGTATTTG is lower in switch fluorescence ratio: 1.01 ± 0.011 for the first, 0.981 ± 0.013 for the second.

Compared with GCTGTAACGA, TGGGGACTTG is lower in switch fluorescence ratio: 0.998 ± 0.017 for the first, 0.9782 ± 0.0015 for the second.

Compared with CTGGCCGTTT, TCTGAGTTCA is lower in switch fluorescence ratio: 1.016 ± 0.01 for the first, 0.987 ± 0.019 for the second.

AGAGGCGCGT and TAAATTATGT are within error of each other in switch fluorescence ratio: 0.946 ± 0.036 for the first, 0.9816 ± 0.0076 for the second.

TTTTGGTTAG and TGAATTCTTT are within error of each other in switch fluorescence ratio: 0.983 ± 0.015 for the first, 0.968 ± 0.041 for the second.

CGTTGCGGGG and TGCCGGCTGG are within error of each other in switch fluorescence ratio: 0.9751 ± 0.0073 for the first, 1.02 ± 0.053 for the second.

First: AATGGGCGTC
Second: CTACCGCCTA
The switch fluorescence ratio of the first is lower: 0.9902 ± 0.0069 for the first, 1.39 ± 0.048 for the second.

TAAATTTAAG and AATCGGAATT are within error of each other in switch fluorescence ratio: 1 ± 0.027 for the first, 1.01 ± 0.03 for the second.

First: TTGACAGTAA
Second: TGGGCTATAG
The switch fluorescence ratio of the first is higher: 1.08 ± 0.014 for the first, 1.03 ± 0.032 for the second.

Compared with AGTTGTTTGG, GTCTACTGCT is higher in switch fluorescence ratio: 1 ± 0.025 for the first, 1.07 ± 0.028 for the second.

ATTACAAAAA and GACGGGGATG are within error of each other in switch fluorescence ratio: 1.01 ± 0.014 for the first, 1.03 ± 0.012 for the second.

GGGTATGTTG and GTACGGGGGT are within error of each other in switch fluorescence ratio: 0.978 ± 0.032 for the first, 0.996 ± 0.059 for the second.
